The RNAGym collection of RNA variant scans (doi:10.7554/elife.90254)

B1: LINE1-mini (parent)
chain: GGCAGAGCUCAACACAGCGUGGCAAAGUGGCUGUGGCUAGACUGCC

Variants of: B1
Experiment: self-cleavage, relative activity (ratio to wild type); higher = more cleavage; in vitro, sequencing; the parent is a self-cleaving ribozyme

Variant | self-cleavage
GGCAGAGCCCAACACAGCGUGGCAAAGGGGCUGUGGCUAGACUGCC [U9C U28G] | 0.04
GGCAGAGCUCAACACAGCGUUGCAAAGUGGCUGUGGCCAGACUGCC [G21U U38C] | 0.9
GGCAGAGCACAACACAGCGUGGGAAAGUGGCUGUGGCUAGACUGCC [U9A C23G] | 0.16
GGCAGAGCUCAACACAGCGUGGCAAAGUGGCUGCGGCAAGACUGCC [U34C U38A] | 0.11
GGCAGAGCGCAACACAGCGUGGCAAAGUGGCAGUGGCUAGACUGCC [U9G U32A] | 0.12
GGCAGAGCUCAACACAACGUGGCAAAGUGGCUGGGGCUAGACUGCC [G17A U34G] | 0.02
GGCAGAGCUCAACACAGCGUCGCAAAGUGGCUGUGGCUAGACUCCC [G21C G44C] | 0.4
GGCAGAGCUCAACACAGCGUGGCAAAGUGGCUGUGGCUGGACUGCA [A39G C46A] | 0.14
GGCAGAGCUCAACACAGCGUGGCAAAGUGGCUGUGCAUAGACUGCC [G36C C37A] | 0.1
GGCAGAGCUCAACACAGCGAGGCAAAGUGGCUGUGGCUAUACUGCC [U20A G40U] | 0.08
GGCAGAGCUCAACACAGCGUGGCAAAGUGGUUGUGGGUAGACUGCC [C31U C37G] | 0.05
GGCAGAGUUCAACACAGCCUGGCAAAGUGGCUGUGGCUAGACUGCC [C8U G19C] | 0.17
GGCUGAGCUCAACACAGCGUGGCAAAGUGGCUGUUGCUAGACUGCC [A4U G35U] | 0.13
GGCAGAGCUCAACACAGCGUGCCAAAGUGGCUGUGGCUAGUCUGCC [G22C A41U] | 0.72
GGCAGAGCUCAACACAGCGUGGCAAAGUGGCUGUCGCUAGACUUCC [G35C G44U] | 0.06
GGCAGAGCUCAACACAGCGUGGCAAAGUGGCUGUGGUUAGACAGCC [C37U U43A] | 0.11
GGCAGAGCUCAACACAGCGUGGAAAAGUGGCUGGGGCUAGACUGCC [C23A U34G] | 0.22
GGCAGAGCACAACAAAGCGUGGCAAAGUGGCUGUGGCUAGACUGCC [U9A C15A] | 0.13
GGCAGAGCUCAACACAGCGUGGCAAAGUGGCCGUGGCUAGACUCCC [U32C G44C] | 0.09

Variant | self-cleavage
GGCAGAGCUCCACACAGCGUGGCAAAGUGCCUGUGGCUAGACUGCC [A11C G30C] | 0.04
GGCAGAGCUCAACACAGCGUCGCAAAGUGGCUGUGGCUAGACGGCC [G21C U43G] | 0.02
GGCAGAGCUGAACACACCGUGGCAAAGUGGCUGUGGCUAGACUGCC [C10G G17C] | 0.23
GGCAGAGCUCAACACAGCGUGGUAAAGUGGCUGUAGCUAGACUGCC [C23U G35A] | 0.19
GGCAGAGCUCAACACAGCGUGGCAAAGUUGCUGUGGCUAGACUGGC [G29U C45G] | 0.78
GGCAGAGCUCACCACAGCGUGGCAAAGUGGCUGUGGCUAGACGGCC [A12C U43G] | 0.01
GGCAGAGCUGAACACAGCGUGGCAAAGUGGCUGUGCCUAGACUGCC [C10G G36C] | 0.03
GGCAGAGCUCAACACAGCGUGGCAAUGUGGCUGUGGCUAUACUGCC [A26U G40U] | 0.13
GGCAGAGCUUACCACAGCGUGGCAAAGUGGCUGUGGCUAGACUGCC [C10U A12C] | 0.02
GGCAGAGCUCAUCACAGGGUGGCAAAGUGGCUGUGGCUAGACUGCC [A12U C18G] | 0.17
GGCAGAGCUCAACACUGCGUGGCAAAGUCGCUGUGGCUAGACUGCC [A16U G29C] | 0.53
GGCAGAGCUCAACACAGCGUGGCAAAGGGGCUCUGGCUAGACUGCC [U28G G33C] | 0.05
GGCAGAGCUCAACACAGCGUGGCAAAGUGUCUGUGGCUAGACUGCG [G30U C46G] | 1.29
GGCAUAACUCAACACAGCGUGGCAAAGUGGCUGUGGCUAGACUGCC [G5U G7A] | 0.43
GGCAGAGCUCAACACUGCGUGGCGAAGUGGCUGUGGCUAGACUGCC [A16U A24G] | 0.1
GGCAGAGCUCAACACAGCAUGGCAAAGUGUCUGUGGCUAGACUGCC [G19A G30U] | 2.03
GGCAGUGCUCAACACAGCGUGGUAAAGUGGCUGUGGCUAGACUGCC [A6U C23U] | 0.89
GGCAGAGCUCAAGACAGCGUGGCAAAGUGGCUGUCGCUAGACUGCC [C13G G35C] | 0.81
GGCAGAACUCAACACAGCGAGGCAAAGUGGCUGUGGCUAGACUGCC [G7A U20A] | 0.12

Variant | self-cleavage
GGCAGAUCUCAAUACAGCGUGGCAAAGUGGCUGUGGCUAGACUGCC [G7U C13U] | 0.15
GGCAGAGCUCAACAAAGCGUGGCAAAGUGGCUGUGGCCAGACUGCC [C15A U38C] | 0.07
GGCAGAGCUCAACACAGCGUUGCAAAGUGGCUGUGGCUAGACGGCC [G21U U43G] | 0.07
GGCAGAGCUCAACACAGCGUGGCAAAGCGGCCGUGGCUAGACUGCC [U28C U32C] | 0.27
GGCAGAGCUCAACACAGCGUGGGAAAGUGGCUGUGGCUAGCCUGCC [C23G A41C] | 0.04
GGCGGAGCUCAACACAGCGUGGCAAAGUGGCUGUGUCUAGACUGCC [A4G G36U] | 0.09
GGCAGAGCUCAACACAGCGUGACAAAGUGGCUGUGGCUAAACUGCC [G22A G40A] | 0.08
GGCAGAGCUCAACACAGCGUGGCAAAGUGGAUGUGGCUAGUCUGCC [C31A A41U] | 0.09
GGCAGAGCUCAAGACAGCGUGGCAAAGUGGCUGUGGCUGGACUGCC [C13G A39G] | 0.09
GGCAGAGCUCAACACACCGUGGCAAAGUGGCUGUGGUUAGACUGCC [G17C C37U] | 0.08
GUCAGAGCUCAACACCGCGUGGCAAAGUGGCUGUGGCUAGACUGCC [G2U A16C] | 0.13
GGCAGAGCCCAACACAGCGUGGCAAAGUGGCUGUGGCUAGACUCCC [U9C G44C] | 0.02
GGCAGAGCUCAACCCAGCGUGGCAAAGUGGCUGUGGCUAGGCUGCC [A14C A41G] | 0.05
GGCAGAGAUCAACACAGCGUGGCAAAGUUGCUGUGGCUAGACUGCC [C8A G29U] | 0.43
GGCAGAGCUCAACACAGCGUGGCAAUGUGGCUGUGUCUAGACUGCC [A26U G36U] | 0.09
GGCAGAGUUCAACACAGUGUGGCAAAGUGGCUGUGGCUAGACUGCC [C8U C18U] | 0.14
GGAAGAGCUCAACACAGCGUGGAAAAGUGGCUGUGGCUAGACUGCC [C3A C23A] | 0.61
GGCAGAGCGCAACACAGCGUGGCAAAGUGGCUGUGGCUACACUGCC [U9G G40C] | 0.08
